The source of these data is patent publication US20230357348A1 (AstraZeneca / MedImmune, published 2023).

Assay [1] deals with human GLP-1 receptor (hGLP-1R) (human, UniProt P43220 24-463). The assay can be described thus: cell-based or functional assay.
The target of assay [2] is human glucagon receptor (hGCGR) (human, UniProt P47871 26-477). Put plainly: cell-based or functional assay.

Starred links: 1 amine or outer side, 2 acyl side, 3 side chain; linkers in the order of their positions; H or OH if unused. Non-standard residues stand in square brackets, D forms with d. Groups on a side chain read outwards from the residue. No end group written: not given here. *: point of attachment. C20 diacid = O=C(O)CCCCCCCCCCCCCCCCCCC(=O)*; C18 diacid = O=C(O)CCCCCCCCCCCCCCCCC(=O)*; γGlu = O=C(O)[C@H](CCC(=O)[*:2])N[*:1]; αMeF = C[C@](N)(Cc1ccccc1)C(=O)O; AEEA = NCCOCCOCC(=O)O; Aib = CC(C)(N)C(=O)O

human glucagon receptor (hGCGR), sequence (P47871 26-477): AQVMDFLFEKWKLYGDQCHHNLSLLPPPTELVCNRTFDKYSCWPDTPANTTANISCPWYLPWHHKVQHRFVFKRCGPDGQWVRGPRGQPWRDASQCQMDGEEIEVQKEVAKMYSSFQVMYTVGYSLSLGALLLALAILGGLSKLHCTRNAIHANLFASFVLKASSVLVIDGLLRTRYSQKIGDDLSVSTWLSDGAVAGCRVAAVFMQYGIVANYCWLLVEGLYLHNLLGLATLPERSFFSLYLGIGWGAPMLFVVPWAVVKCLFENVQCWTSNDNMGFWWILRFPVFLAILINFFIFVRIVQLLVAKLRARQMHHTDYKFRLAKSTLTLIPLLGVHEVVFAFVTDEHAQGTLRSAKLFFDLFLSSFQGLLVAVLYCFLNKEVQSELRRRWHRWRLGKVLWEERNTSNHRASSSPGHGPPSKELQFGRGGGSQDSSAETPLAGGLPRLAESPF

B1: Peptide 147 (peptide)
peptide: H[Aib]QGTFTSDVSK[αMeF]LDSK([AEEA-AEEA-γGlu-C18 diacid])RAQDFVRWLEA[Aib]G-OH
modifications: N-terminus assumed
SMILES: CC(C)C[C@H](NC(=O)[C@H](Cc1c[nH]c2ccccc12)NC(=O)[C@H](CCCNC(=N)N)NC(=O)[C@@H](NC(=O)[C@H](Cc1ccccc1)NC(=O)[C@H](CC(=O)O)NC(=O)[C@H](CCC(N)=O)NC(=O)[C@H](C)NC(=O)[C@H](CCCNC(=N)N)NC(=O)[C@H](CCCCNC(=O)COCCOCCNC(=O)COCCOCCNC(=O)CC[C@H](NC(=O)CCCCCCCCCCCCCCCCC(=O)O)C(=O)O)NC(=O)[C@H](CO)NC(=O)[C@H](CC(=O)O)NC(=O)[C@H](CC(C)C)NC(=O)[C@](C)(Cc1ccccc1)NC(=O)[C@H](CCCCN)NC(=O)[C@H](CO)NC(=O)[C@@H](NC(=O)[C@H](CC(=O)O)NC(=O)[C@H](CO)NC(=O)[C@@H](NC(=O)[C@H](Cc1ccccc1)NC(=O)[C@@H](NC(=O)CNC(=O)[C@H](CCC(N)=O)NC(=O)C(C)(C)NC(=O)[C@@H](N)Cc1c[nH]cn1)[C@@H](C)O)[C@@H](C)O)C(C)C)C(C)C)C(=O)N[C@@H](CCC(=O)O)C(=O)N[C@@H](C)C(=O)NC(C)(C)C(=O)NCC(=O)O
Take B1: the “hGLP-1R EC50 (pM)” value in assay [1] was found to be 15.3 pM. In addition, the “hGluc-R EC50 (pM)” value in assay [2] was found to be 43.5 pM.

B2: Peptide 150 (peptide)
peptide: H[Aib]QGTFTSDVSK[αMeF]LDSK([AEEA-AEEA-γGlu-C18 diacid])RAQDFVQWLL[Aib]TE-OH
modifications: N-terminus assumed
SMILES: CC(C)C[C@H](NC(=O)[C@H](Cc1c[nH]c2ccccc12)NC(=O)[C@H](CCC(N)=O)NC(=O)[C@@H](NC(=O)[C@H](Cc1ccccc1)NC(=O)[C@H](CC(=O)O)NC(=O)[C@H](CCC(N)=O)NC(=O)[C@H](C)NC(=O)[C@H](CCCNC(=N)N)NC(=O)[C@H](CCCCNC(=O)COCCOCCNC(=O)COCCOCCNC(=O)CC[C@H](NC(=O)CCCCCCCCCCCCCCCCC(=O)O)C(=O)O)NC(=O)[C@H](CO)NC(=O)[C@H](CC(=O)O)NC(=O)[C@H](CC(C)C)NC(=O)[C@](C)(Cc1ccccc1)NC(=O)[C@H](CCCCN)NC(=O)[C@H](CO)NC(=O)[C@@H](NC(=O)[C@H](CC(=O)O)NC(=O)[C@H](CO)NC(=O)[C@@H](NC(=O)[C@H](Cc1ccccc1)NC(=O)[C@@H](NC(=O)CNC(=O)[C@H](CCC(N)=O)NC(=O)C(C)(C)NC(=O)[C@@H](N)Cc1c[nH]cn1)[C@@H](C)O)[C@@H](C)O)C(C)C)C(C)C)C(=O)N[C@@H](CC(C)C)C(=O)NC(C)(C)C(=O)N[C@H](C(=O)N[C@@H](CCC(=O)O)C(=O)O)[C@@H](C)O
As to B2, the “hGLP-1R EC50 (pM)” value in assay [1] turned out to be 166 pM. Also, the “hGluc-R EC50 (pM)” value in assay [2] amounted to 355 pM.

B3: Peptide 152 (peptide)
peptide: H[Aib]QGTFTSDVSK[αMeF]LDSK([AEEA-AEEA-γGlu-C18 diacid])RAQDFVRWLL[Aib]E-OH
modifications: N-terminus assumed
SMILES: CC(C)C[C@H](NC(=O)[C@H](Cc1c[nH]c2ccccc12)NC(=O)[C@H](CCCNC(=N)N)NC(=O)[C@@H](NC(=O)[C@H](Cc1ccccc1)NC(=O)[C@H](CC(=O)O)NC(=O)[C@H](CCC(N)=O)NC(=O)[C@H](C)NC(=O)[C@H](CCCNC(=N)N)NC(=O)[C@H](CCCCNC(=O)COCCOCCNC(=O)COCCOCCNC(=O)CC[C@H](NC(=O)CCCCCCCCCCCCCCCCC(=O)O)C(=O)O)NC(=O)[C@H](CO)NC(=O)[C@H](CC(=O)O)NC(=O)[C@H](CC(C)C)NC(=O)[C@](C)(Cc1ccccc1)NC(=O)[C@H](CCCCN)NC(=O)[C@H](CO)NC(=O)[C@@H](NC(=O)[C@H](CC(=O)O)NC(=O)[C@H](CO)NC(=O)[C@@H](NC(=O)[C@H](Cc1ccccc1)NC(=O)[C@@H](NC(=O)CNC(=O)[C@H](CCC(N)=O)NC(=O)C(C)(C)NC(=O)[C@@H](N)Cc1c[nH]cn1)[C@@H](C)O)[C@@H](C)O)C(C)C)C(C)C)C(=O)N[C@@H](CC(C)C)C(=O)NC(C)(C)C(=O)N[C@@H](CCC(=O)O)C(=O)O
B3: the “hGLP-1R EC50 (pM)” value in assay [1] was determined as 11.9 pM. In assay [2], the “hGluc-R EC50 (pM)” value turned out to be 20.4 pM.

B4: Peptide 148 (peptide)
peptide: H[Aib]QGTFTSDVSK[αMeF]LDSK([AEEA-AEEA-γGlu-C18 diacid])RAQDFVRWIAE[Aib]G-OH
modifications: N-terminus assumed
SMILES: CC[C@H](C)[C@H](NC(=O)[C@H](Cc1c[nH]c2ccccc12)NC(=O)[C@H](CCCNC(=N)N)NC(=O)[C@@H](NC(=O)[C@H](Cc1ccccc1)NC(=O)[C@H](CC(=O)O)NC(=O)[C@H](CCC(N)=O)NC(=O)[C@H](C)NC(=O)[C@H](CCCNC(=N)N)NC(=O)[C@H](CCCCNC(=O)COCCOCCNC(=O)COCCOCCNC(=O)CC[C@H](NC(=O)CCCCCCCCCCCCCCCCC(=O)O)C(=O)O)NC(=O)[C@H](CO)NC(=O)[C@H](CC(=O)O)NC(=O)[C@H](CC(C)C)NC(=O)[C@](C)(Cc1ccccc1)NC(=O)[C@H](CCCCN)NC(=O)[C@H](CO)NC(=O)[C@@H](NC(=O)[C@H](CC(=O)O)NC(=O)[C@H](CO)NC(=O)[C@@H](NC(=O)[C@H](Cc1ccccc1)NC(=O)[C@@H](NC(=O)CNC(=O)[C@H](CCC(N)=O)NC(=O)C(C)(C)NC(=O)[C@@H](N)Cc1c[nH]cn1)[C@@H](C)O)[C@@H](C)O)C(C)C)C(C)C)C(=O)N[C@@H](C)C(=O)N[C@@H](CCC(=O)O)C(=O)NC(C)(C)C(=O)NCC(=O)O
Turning to B4, the “hGLP-1R EC50 (pM)” value in assay [1] worked out at 40.2 pM. Moreover, the “hGluc-R EC50 (pM)” value in assay [2] worked out at 568 pM.

B5: Peptide 149 (peptide)
peptide: H[Aib]QGTFTSDVSK[αMeF]LDSK([AEEA-AEEA-γGlu-C18 diacid])RAQDFVRWVVE[Aib]G-OH
modifications: N-terminus assumed
SMILES: CC(C)C[C@H](NC(=O)[C@](C)(Cc1ccccc1)NC(=O)[C@H](CCCCN)NC(=O)[C@H](CO)NC(=O)[C@@H](NC(=O)[C@H](CC(=O)O)NC(=O)[C@H](CO)NC(=O)[C@@H](NC(=O)[C@H](Cc1ccccc1)NC(=O)[C@@H](NC(=O)CNC(=O)[C@H](CCC(N)=O)NC(=O)C(C)(C)NC(=O)[C@@H](N)Cc1c[nH]cn1)[C@@H](C)O)[C@@H](C)O)C(C)C)C(=O)N[C@@H](CC(=O)O)C(=O)N[C@@H](CO)C(=O)N[C@@H](CCCCNC(=O)COCCOCCNC(=O)COCCOCCNC(=O)CC[C@H](NC(=O)CCCCCCCCCCCCCCCCC(=O)O)C(=O)O)C(=O)N[C@@H](CCCNC(=N)N)C(=O)N[C@@H](C)C(=O)N[C@@H](CCC(N)=O)C(=O)N[C@@H](CC(=O)O)C(=O)N[C@@H](Cc1ccccc1)C(=O)N[C@H](C(=O)N[C@@H](CCCNC(=N)N)C(=O)N[C@@H](Cc1c[nH]c2ccccc12)C(=O)N[C@H](C(=O)N[C@H](C(=O)N[C@@H](CCC(=O)O)C(=O)NC(C)(C)C(=O)NCC(=O)O)C(C)C)C(C)C)C(C)C
B5: the “hGLP-1R EC50 (pM)” value in assay [1] was found to be 8.71 pM. For the same molecule, in assay [2], the “hGluc-R EC50 (pM)” value is 2650 pM.

B6: Peptide 151 (peptide)
peptide: H[Aib]QGTFTSDVSK[αMeF]LDSK([AEEA-AEEA-γGlu-C20 diacid])RAQDFVRWLL[Aib]TE-OH
modifications: N-terminus assumed
SMILES: CC(C)C[C@H](NC(=O)[C@H](Cc1c[nH]c2ccccc12)NC(=O)[C@H](CCCNC(=N)N)NC(=O)[C@@H](NC(=O)[C@H](Cc1ccccc1)NC(=O)[C@H](CC(=O)O)NC(=O)[C@H](CCC(N)=O)NC(=O)[C@H](C)NC(=O)[C@H](CCCNC(=N)N)NC(=O)[C@H](CCCCNC(=O)COCCOCCNC(=O)COCCOCCNC(=O)CC[C@H](NC(=O)CCCCCCCCCCCCCCCCCCC(=O)O)C(=O)O)NC(=O)[C@H](CO)NC(=O)[C@H](CC(=O)O)NC(=O)[C@H](CC(C)C)NC(=O)[C@](C)(Cc1ccccc1)NC(=O)[C@H](CCCCN)NC(=O)[C@H](CO)NC(=O)[C@@H](NC(=O)[C@H](CC(=O)O)NC(=O)[C@H](CO)NC(=O)[C@@H](NC(=O)[C@H](Cc1ccccc1)NC(=O)[C@@H](NC(=O)CNC(=O)[C@H](CCC(N)=O)NC(=O)C(C)(C)NC(=O)[C@@H](N)Cc1c[nH]cn1)[C@@H](C)O)[C@@H](C)O)C(C)C)C(C)C)C(=O)N[C@@H](CC(C)C)C(=O)NC(C)(C)C(=O)N[C@H](C(=O)N[C@@H](CCC(=O)O)C(=O)O)[C@@H](C)O
B6: the “hGLP-1R EC50 (pM)” value in assay [1] was 111 pM. Also, in assay [2], the “hGluc-R EC50 (pM)” value was 178 pM.

B7: Peptide 146 (peptide)
peptide: H[Aib]QGTFTSDVSK[αMeF]LDSK([AEEA-AEEA-γGlu-C18 diacid])RAQDFVRWLASR-OH
modifications: N-terminus assumed
SMILES: CC(C)C[C@H](NC(=O)[C@H](Cc1c[nH]c2ccccc12)NC(=O)[C@H](CCCNC(=N)N)NC(=O)[C@@H](NC(=O)[C@H](Cc1ccccc1)NC(=O)[C@H](CC(=O)O)NC(=O)[C@H](CCC(N)=O)NC(=O)[C@H](C)NC(=O)[C@H](CCCNC(=N)N)NC(=O)[C@H](CCCCNC(=O)COCCOCCNC(=O)COCCOCCNC(=O)CC[C@H](NC(=O)CCCCCCCCCCCCCCCCC(=O)O)C(=O)O)NC(=O)[C@H](CO)NC(=O)[C@H](CC(=O)O)NC(=O)[C@H](CC(C)C)NC(=O)[C@](C)(Cc1ccccc1)NC(=O)[C@H](CCCCN)NC(=O)[C@H](CO)NC(=O)[C@@H](NC(=O)[C@H](CC(=O)O)NC(=O)[C@H](CO)NC(=O)[C@@H](NC(=O)[C@H](Cc1ccccc1)NC(=O)[C@@H](NC(=O)CNC(=O)[C@H](CCC(N)=O)NC(=O)C(C)(C)NC(=O)[C@@H](N)Cc1c[nH]cn1)[C@@H](C)O)[C@@H](C)O)C(C)C)C(C)C)C(=O)N[C@@H](C)C(=O)N[C@@H](CO)C(=O)N[C@@H](CCCNC(=N)N)C(=O)O
B7: the “hGLP-1R EC50 (pM)” value in assay [1] was 24.6 pM. Moreover, in assay [2], the “hGluc-R EC50 (pM)” value worked out at 1630 pM.
